Results taken from PMC5342150, “PRMT5 competitively binds to CDK4 to promote G1-S transition upon glucose induction in hepatocellular carcinoma” (Oncotarget, 2016).

What was measured:
[1] = molecular target: T1, 6× His-tagged PRMT5 (human, UniProt O14744 1-637); assay: pull-down; binding reaction (500 μl) with 100 μl purified His-p16^INK4a (or His-PRMT5) and increasing amounts (50, 100, 200, 400 μl) of purified His-PRMT5 (or His-p16^INK4a) incubated with GST-fused CDK4 1-70 aa; Western blot; conditions: both partners purified
T1 construct: protein arginine methyltransferase 5 (PRMT5), human; also called His-PRMT5
T1 sequence (O14744 whole entry, the tested form may be a part): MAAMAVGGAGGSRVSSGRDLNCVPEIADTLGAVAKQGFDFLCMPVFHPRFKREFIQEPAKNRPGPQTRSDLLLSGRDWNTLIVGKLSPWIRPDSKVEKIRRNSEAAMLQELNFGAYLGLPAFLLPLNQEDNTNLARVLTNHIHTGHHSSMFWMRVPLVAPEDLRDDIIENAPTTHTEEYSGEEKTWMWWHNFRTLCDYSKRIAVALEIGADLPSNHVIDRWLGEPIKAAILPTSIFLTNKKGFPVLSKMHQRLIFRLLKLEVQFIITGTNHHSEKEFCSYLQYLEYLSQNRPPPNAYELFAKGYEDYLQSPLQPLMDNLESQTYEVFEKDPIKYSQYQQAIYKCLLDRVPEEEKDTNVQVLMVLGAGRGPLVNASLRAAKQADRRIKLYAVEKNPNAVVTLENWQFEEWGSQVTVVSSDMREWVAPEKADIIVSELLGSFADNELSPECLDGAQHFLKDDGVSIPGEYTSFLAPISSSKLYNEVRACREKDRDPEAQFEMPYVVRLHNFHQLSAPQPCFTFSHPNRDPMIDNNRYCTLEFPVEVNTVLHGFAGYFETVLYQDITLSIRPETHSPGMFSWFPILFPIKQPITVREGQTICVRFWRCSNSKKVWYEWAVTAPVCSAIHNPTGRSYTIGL

[2] = molecular target: T2, 6× His-tagged p16^INK4a (human, UniProt P42771 1-156); assay: as above; conditions: both partners purified
T2 construct: p16^INK4a, the major isoform of CDKN2A, human; also called His-p16^INK4a; CDKN2A
T2 sequence (looked up): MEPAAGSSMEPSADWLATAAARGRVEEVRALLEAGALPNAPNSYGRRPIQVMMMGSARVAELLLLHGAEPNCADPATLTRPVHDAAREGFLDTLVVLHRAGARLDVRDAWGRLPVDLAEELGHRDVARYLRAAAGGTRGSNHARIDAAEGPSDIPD

binding result [1]: binds | binding result [2]: binds
B1: GST-fused CDK4 1-70 aa (domain or fragment, human, UniProt P11802-1 1-70, looked up)
chain: MATSRYEPVAEIGVGAYGTVYKARDPHSGHFVALKSVRVPNGGGGGGGLPISTVREVALLRRLEAFEHPN
notes: cyclin dependent kinase 4 (CDK4), human, amino acids 1-70 of NP_000066; also called GST-CDK4 fragment 1-70; source: E. coli BL21, purified (glutathione-Sepharose 4B beads)
